# Assay results as given in article PMC4585926, “A RANKL mutant used as an inter-species vaccine for efficient immunotherapy of osteoporosis” (Scientific Reports, 2015).
# B1: human RANKL ectodomain (residues 158-317), wild type [human] / mouse RANK extracellular domain [mouse] (parent complex)
# chain 1: SKLEAQPFAHLTINATDIPSGSHKVSLSSWYHDRGWAKISNMTFSNGKLIVNQDGFYYLYANICFRHHETSGDLATEYLQLMVYVTKTSIKIPSSHTLMKGGSTKYWSGNSEFHFYSINVGGFFKLRSGEEISIEVSNPSLLDPDQDATYFGAFKVRDID
# chain 2: VTPPCTQERHYEHLGRCCSRCEPGKYLSSKCTPTSDSVCLPCGPDEYLDTWNEEDKCLLHKVCDAGKALVAVDPGNHTAPRRCACTAGYHWNSDCECCRRNTECAPGFGAQHPLQLNKDTVCTPCLLGFFSDVFSSTDKCKPWTNCTLLGKLEAHQGTTESDVVCSSSMTLRRPPKEAQAYLPS
# Variants of: B1
# Assay: SPR (Biacore, chelating NTA sensor chip); hRANKL or mutant injected at 0, 0.47, 0.94, 1.88, 3.75, 7.5, 15 and 30 nM; parent: 0.156 nM
row,Kd,Variant
1,2.15 nM,chain 1 SKLEAQPFAHLTINATDIPSGSHKVSLSSWYHDRGWAKISNMTFSNGKLIVNQDGFYYLYANICFRHHETSGDLATEYLQLMVYVTKTSIKIPSSHTLMKGGSTKYWSGNSEFHFYSINVGGFFKLRSGEEISIEVSNPSLLAPDQDATYFGAFKVRDID [chain 1 D143A]
2,10.7 nM,chain 1 SKLEAQPFAHLTINATDIPSGSHKVSLSSWYHDRGWAKISNMTFSNGKLIVNQDGFYYLYANICFAHHETSGDLATEYLQLMVYVTKTSIKIPSSHTLMKGGSTKYWSGNSEFHFYSINVGGFFKLRSGEEISIEVSNPSLLDPDQDATYFGAFKVRDID [chain 1 R66A]
3,39.4 nM,"chain 1 SKLEAQPFAHLTINATDIPSGSHKVSLSSWYHDRGWAKISNMTFSNGKLIVNQDGFYYLYANICFAHHETSGDLATEYLQLMVYVTKTSIKIPSSHTLMKGGSTKYWSGNSEFHFYSINVGGFFKLRSGEEISIEVSNPSLLAPDQDATYFGAFKVRDID [chain 1 R66A, chain 1 D143A]"
